Data taken from paper doi:10.1101/2024.12.20.629533.

Biological target: VgrS (residues 81-729), Salmonella Typhimurium VgrG (Salmonella enterica serovar Typhimurium)
Assay: crystal structure

VgrS (residues 81-729), Salmonella Typhimurium VgrG (domain or fragment)
stoichiometry N: 3
